# Article PMC11808413 (FEBS letters, 2024)
# No end group written: not given here.
# Experiments:
# [1] = target: the molecule itself; assay: non-reducing gel (disulfide-linked oligomers); air-oxidized MBP-tagged LTO1 alone (Fig. 3, lane 2)
# [2] = target: the molecule itself; assay: non-reducing SDS-urea-PAGE (disulfide-linked oligomers); 5 uM desalted MBP-tagged lumenal segment, air-oxidized or with 2 mM diamide or H2O2 for 30 minutes at room temperature, non-reducing 8 % SDS-urea-PAGE; oxidants raise the share of dimers, and higher order oligomers appear for the wild type
Protein,binding result [1],binding result [2]
"MBP-tagged lumenal segment of Arabidopsis thaliana LTO1 (AA 251-376) (domain or fragment, UniProt Q8L540 251-376, looked up) SRSGDIELPYFRTEISSSSSPYAIALAKHLNSIGAKMYGAFWCSHCLEQKEMFGREAAKELNYVECFPDGYKKGTKILKACADAAIEGFPTWIINDKVLSGEIELAELAEMTGFSLDQANETNQLQ",binds,–
"AQLIDTVHNLFIGVGVGLPSTVMECGDMIYRSTLPKSNGLTITA (domain or fragment, UniProt Q9S713 46-89, looked up, also: MBP-tagged) [MBP-tagged lumenal segment of Arabidopsis thaliana STN7 (AA 46-89), C65S]",–,binds
"AQLIDTVHNLFIGVGVGLPCTVMESGDMIYRSTLPKSNGLTITA (domain or fragment, UniProt Q9S713 46-89, looked up, also: MBP-tagged) [MBP-tagged lumenal segment of Arabidopsis thaliana STN7 (AA 46-89), C70S]",–,binds
